Assays:
Experiment in all cases: cell-based or functional assay
[1] = target: HIV-1 Env of pseudovirus Ce1176_A3 (HIV-1)
[2] = target: HIV-1 Env of pseudovirus 1006_11_C3_1601 (HIV-1)
[3] = target: HIV-1 Env of pseudovirus CNE21 (HIV-1)
[4] = target: HIV-1 Env of pseudovirus CNE30 (HIV-1)
[5] = target: HIV-1 Env of pseudovirus 62357_14_D3_4589 (HIV-1)
[6] = target: HIV-1 Env of pseudovirus TRO.11 (HIV-1)
[7] = target: HIV-1 Env of pseudovirus TRJO4551.58 (HIV-1)
[8] = target: HIV-1 Env of pseudovirus Ce704809221_1B3 (HIV-1)
[9] = target: HIV-1 Env of pseudovirus 6244_13_B5_4576 (HIV-1)
[10] = target: HIV-1 Env of pseudovirus SC05_8C11_2344 (HIV-1)
[11] = target: HIV-1 Env of pseudovirus 1012_11_TC21_3257 (HIV-1)
[12] = target: HIV-1 Env of pseudovirus 249M B10 (HIV-1)
[13] = target: HIV-1 Env of pseudovirus CNE53 (HIV-1)
[14] = target: HIV-1 Env of pseudovirus RHPA4259.7 (HIV-1)
[15] = target: HIV-1 Env of pseudovirus CAP45.2.00.G3 (HIV-1)
[16] = target: HIV-1 Env of pseudovirus CNE52 (HIV-1)
[17] = target: HIV-1 Env of pseudovirus Ce0393_C3 (HIV-1)
[18] = target: HIV-1 Env of pseudovirus 1056_10_TA11_1826 (HIV-1)
[19] = target: HIV-1 Env of pseudovirus ZM233M.PB6 (HIV-1)
[20] = target: HIV-1 Env of pseudovirus CAP210.2.00.E8 (HIV-1)
[21] = target: HIV-1 Env of pseudovirus HIV-0013095-2.11 (HIV-1)
[22] = target: HIV-1 Env of pseudovirus ZM135M.PL10a (HIV-1)
[23] = target: HIV-1 Env of pseudovirus ZM214M.PL15 (HIV-1)

## N49P9 (antibody)
[1]
  IC50: 0.258 µg/mL
  IC80: 0.919 µg/mL
  MPI: 100
[2]
  IC50: 0.076 µg/mL
  IC80: 0.231 µg/mL
  MPI: 100
[3]
  IC50: > 50 µg/mL
  IC80: > 50 µg/mL
  MPI: 36
[4]
  IC50: 0.259 µg/mL
  IC80: 0.693 µg/mL
  MPI: 100
[5]
  IC50: 0.074 µg/mL
  IC80: 0.307 µg/mL
  MPI: 100
[6]
  IC50: 0.044 µg/mL
  IC80: 0.177 µg/mL
  MPI: 100
[7]
  IC50: 0.036 µg/mL
  IC80: 0.128 µg/mL
  MPI: 100
[8]
  IC50: 0.133 µg/mL
  IC80: 0.605 µg/mL
  MPI: 100
[9]
  IC50: 0.132 µg/mL
  IC80: 0.366 µg/mL
  MPI: 100
[10]
  IC50: 0.473 µg/mL
  IC80: 1.61 µg/mL
  MPI: 100
[11]
  IC50: 0.194 µg/mL
  IC80: 0.591 µg/mL
  MPI: 100
[12]
  IC50: 0.203 µg/mL
  IC80: 1.41 µg/mL
  MPI: 97
[13]
  IC50: 0.123 µg/mL
  IC80: 0.462 µg/mL
  MPI: 99
[14]
  IC50: 0.023 µg/mL
  IC80: 0.078 µg/mL
  MPI: 100
[15]
  IC50: 0.294 µg/mL
  IC80: 1.99 µg/mL
  MPI: 98
[16]
  IC50: 0.026 µg/mL
  IC80: 0.09 µg/mL
  MPI: 100
[17]
  IC50: 0.189 µg/mL
  IC80: 0.595 µg/mL
  MPI: 100
[18]
  IC50: 0.386 µg/mL
  IC80: 1.32 µg/mL
  MPI: 100
[19]
  IC50: > 50 µg/mL
  IC80: > 50 µg/mL
  MPI: 48
[20]
  IC50: > 50 µg/mL
  IC80: > 50 µg/mL
  MPI: 32
[21]
  IC50: 0.179 µg/mL
  IC80: 0.635 µg/mL
  MPI: 100
[22]
  IC50: 0.224 µg/mL
  IC80: 0.863 µg/mL
  MPI: 97
[23]
  IC50: 0.477 µg/mL
  IC80: 1.99 µg/mL
  MPI: 100

## N49P9.1 (antibody)
[1]
  IC50: 0.44 µg/mL
  IC80: 0.998 µg/mL
  MPI: 100
[2]
  IC50: 0.135 µg/mL
  IC80: 0.448 µg/mL
  MPI: 100
[3]
  IC50: > 50 µg/mL
  IC80: > 50 µg/mL
  MPI: 15
[4]
  IC50: 0.271 µg/mL
  IC80: 0.971 µg/mL
  MPI: 100
[5]
  IC50: 0.227 µg/mL
  IC80: 1.09 µg/mL
  MPI: 99
[6]
  IC50: 0.052 µg/mL
  IC80: 0.196 µg/mL
  MPI: 100
[7]
  IC50: 0.035 µg/mL
  IC80: 0.12 µg/mL
  MPI: 100
[8]
  IC50: 0.162 µg/mL
  IC80: 0.661 µg/mL
  MPI: 100
[9]
  IC50: 0.343 µg/mL
  IC80: 1.5 µg/mL
  MPI: 100
[10]
  IC50: 1.3 µg/mL
  IC80: 4.39 µg/mL
  MPI: 100
[11]
  IC50: 0.382 µg/mL
  IC80: 1.45 µg/mL
  MPI: 100
[12]
  IC50: 0.305 µg/mL
  IC80: 1.64 µg/mL
  MPI: 96
[13]
  IC50: 0.14 µg/mL
  IC80: 0.647 µg/mL
  MPI: 99
[14]
  IC50: 0.021 µg/mL
  IC80: 0.066 µg/mL
  MPI: 100
[15]
  IC50: 1.72 µg/mL
  IC80: 19.6 µg/mL
  MPI: 88
[16]
  IC50: 0.043 µg/mL
  IC80: 0.122 µg/mL
  MPI: 100
[17]
  IC50: 0.284 µg/mL
  IC80: 1.22 µg/mL
  MPI: 100
[18]
  IC50: 0.617 µg/mL
  IC80: 3.03 µg/mL
  MPI: 100
[19]
  IC50: > 50 µg/mL
  IC80: > 50 µg/mL
  MPI: 6
[20]
  IC50: > 50 µg/mL
  IC80: > 50 µg/mL
  MPI: 2
[21]
  IC50: 0.358 µg/mL
  IC80: 1.26 µg/mL
  MPI: 100
[22]
  IC50: 0.332 µg/mL
  IC80: 1.53 µg/mL
  MPI: 98
[23]
  IC50: 0.561 µg/mL
  IC80: 2.96 µg/mL
  MPI: 100

— patent publication US20230002480A1
